# Measured values taken from article PMC2926618.
# Numbering of substitutions follows the chain as printed.
# B1: S15 (CCGCCATC) (dsDNA)
# DNA 1: ACCCAACCGCCATCTGGGT
# DNA 2: ACCCAGATGGCGGTTGGGT
# B2: S2 (CTGCCATC) (dsDNA)
# DNA 1: ACCCACCTGCCATCTAGGT
# DNA 2: ACCTAGATGGCAGGTGGGT
# B3: MS8 methylated (CCGCTAT) (dsDNA)
# DNA 1: ACCCAAACCGCTATCCTT
# DNA 2: AAGGATAGCGGTTTGGGT
# modifications: 5mC at CpG, both strands (SssI)
# B4: MS20 methylated (ACGCTTG) (dsDNA)
# DNA 1: AAGGCCAACGCTTGTGGT
# DNA 2: ACCACAAGCGTTGGCCTT
# modifications: 5mC at CpG, both strands (SssI)
# B5: MS20 unmethylated (ACGCTTG) (dsDNA)
# DNA 1: AAGGCCAACGCTTGTGGT
# DNA 2: ACCACAAGCGTTGGCCTT
# B6: meZ4BS (CMGCCAT) (dsDNA)
# DNA 1: GTAGAAGTTCCCGCCATCACTATTG
# DNA 2: CAATAGTGATGGCGGGAACTTCTAC
# modifications: 5mC at strand 1 C12 and strand 2 C13
# B7: Non-selected (dsDNA)
# DNA 1: ACCAAGCAACACACCCCGT
# DNA 2: ACGGGGTGTGTTGCTTGGT
# B8: meZ4BS hemimethylated, upper strand (dsDNA)
# DNA 1: GTAGAAGTTCCCGCCATCACTATTG
# DNA 2: CAATAGTGATGGCGGGAACTTCTAC
# modifications: 5mC at strand 1 C12 only
# B9: Z4BS (ZBS, CTGCCATC; = TG/AC) (dsDNA)
# DNA 1: GTAGAAGTTCCTGCCATCACTATTG
# DNA 2: CAATAGTGATGGCAGGAACTTCTAC
# B10: TG/GC mismatch (dsDNA)
# DNA 1: GTAGAAGTTCCTGCCATCACTATTG
# DNA 2: CAATAGTGATGGCGGGAACTTCTAC
# Columns and labels:
# [1] = biological target: T1, GST-ZBTB4 zinc fingers (Homo sapiens, UniProt Q9P1Z0 268-460); assay: EMSA
# T1 sequence: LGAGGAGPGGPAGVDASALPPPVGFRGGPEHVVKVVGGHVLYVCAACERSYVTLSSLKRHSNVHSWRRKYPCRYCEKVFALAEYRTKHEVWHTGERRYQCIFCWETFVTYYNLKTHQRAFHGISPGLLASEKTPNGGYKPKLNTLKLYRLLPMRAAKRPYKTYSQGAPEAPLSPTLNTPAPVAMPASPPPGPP
# [2] = biological target: T2, GST-ZBTB38 zinc fingers (Homo sapiens, UniProt Q8NAP3 418-612); assay: EMSA
# T2 sequence: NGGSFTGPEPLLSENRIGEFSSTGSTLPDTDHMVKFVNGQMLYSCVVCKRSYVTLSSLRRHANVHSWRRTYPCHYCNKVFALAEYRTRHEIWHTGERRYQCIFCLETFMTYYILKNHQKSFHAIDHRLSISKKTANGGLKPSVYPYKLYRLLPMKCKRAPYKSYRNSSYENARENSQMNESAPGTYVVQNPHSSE
# [3] = biological target: T3, GST-Kaiso zinc fingers (Homo sapiens, UniProt Q86T24 454-638); assay: EMSA
# T3 sequence: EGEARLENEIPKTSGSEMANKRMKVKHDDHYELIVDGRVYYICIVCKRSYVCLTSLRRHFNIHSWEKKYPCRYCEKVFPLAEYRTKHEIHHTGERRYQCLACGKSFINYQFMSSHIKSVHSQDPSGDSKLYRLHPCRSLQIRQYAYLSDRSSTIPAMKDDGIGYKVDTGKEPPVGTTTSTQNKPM
# [4] = biological target: T4, GST-ZBTB4 T376A (Homo sapiens, UniProt Q9P1Z0 268-460, T376A); assay: EMSA
# T4 sequence: T1 sequence with T109A
# [5] = biological target: T5, GST-ZBTB4 K354A (Homo sapiens, UniProt Q9P1Z0 268-460, K354A); assay: EMSA
# T5 sequence: T1 sequence with K87A
# [6] = biological target: T6, GST-ZBTB4 R326A (Homo sapiens, UniProt Q9P1Z0 268-460, R326A); assay: EMSA
# T6 sequence: T1 sequence with R59A
# [7] = biological target: T7, GST-ZBTB4 L348A (Homo sapiens, UniProt Q9P1Z0 268-460, L348A); assay: EMSA
# T7 sequence: T1 sequence with L81A
# [8] = biological target: T8, GST-ZBTB4 Y351A (Homo sapiens, UniProt Q9P1Z0 268-460, Y351A); assay: EMSA
# T8 sequence: T1 sequence with Y84A
# [9] = biological target: T9, GST-Kaiso E535A (Homo sapiens, UniProt Q86T24 454-638, E535A); assay: EMSA
# T9 sequence: T3 sequence with E82A
# [10] = biological target: T10, GST-ZBTB4 S323A (Homo sapiens, UniProt Q9P1Z0 268-460, S323A); assay: EMSA
# T10 sequence: T1 sequence with S56A
# [11] = biological target: T1, GST-ZBTB4 zinc fingers; assay: competition
# [12] = biological target: T1, GST-ZBTB4 zinc fingers; assay: competition; remark: listed apart in the source
# [13] = biological target: T11, GST-ZBTB4 E350A (Homo sapiens, UniProt Q9P1Z0 268-460, E350A); assay: EMSA
# T11 sequence: T1 sequence with E83A
# [14] = biological target: T1, GST-ZBTB4 zinc fingers; assay: EMSA; remark: listed apart in the source
binder,measurement,setting,value
B1,binding result,[1],binds
same,binding result,[2],no binding
same,binding result,[3],binds
B2,binding result,[1],binds
same,binding result,[2],no binding
same,binding result,[3],binds
B3,binding result,[1],binds
B4,binding result,[1],binds
B5,binding result,[1],no binding
B6,binding result,[4],binds
same,binding result,[5],binds
same,binding result,[6],no binding
same,binding result,[7],binds
same,binding result,[8],binds
same,binding result,[2],binds
same,binding result,[9],no binding
same,binding result,[10],binds
same,binding result,[11],binds
B7,binding result,[1],no binding
B8,binding result,[12],binds
B9,binding result,[4],binds
same,binding result,[13],binds
same,binding result,[5],binds
same,binding result,[6],no binding
same,binding result,[9],binds
same,binding result,[14],binds
B10,binding result,[13],binds
